Earlier results on one substance are cited in paper PMC5497954.

This data set addresses IL2Rβγ (Homo sapiens) (UniProt P14784).
Chain of UniProt P14784 (P14784 27-240, chain 1 of 2): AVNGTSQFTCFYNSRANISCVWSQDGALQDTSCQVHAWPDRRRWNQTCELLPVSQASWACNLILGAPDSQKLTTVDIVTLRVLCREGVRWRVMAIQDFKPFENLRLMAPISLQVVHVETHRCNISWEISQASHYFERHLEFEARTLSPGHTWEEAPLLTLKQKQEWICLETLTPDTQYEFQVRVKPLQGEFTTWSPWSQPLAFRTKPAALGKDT
Chain of UniProt P14784 (P31785 23-262, chain 2 of 2, further chain): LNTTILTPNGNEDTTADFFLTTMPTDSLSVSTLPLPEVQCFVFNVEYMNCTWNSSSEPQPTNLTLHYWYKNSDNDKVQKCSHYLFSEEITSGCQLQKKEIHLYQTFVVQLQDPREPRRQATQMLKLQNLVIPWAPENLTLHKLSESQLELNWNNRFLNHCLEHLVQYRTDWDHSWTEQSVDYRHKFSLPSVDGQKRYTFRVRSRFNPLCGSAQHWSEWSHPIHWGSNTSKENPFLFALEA

In general, Kd refers to a measure of binding affinity in units of concentration. In the case of IL2 (from UniProt P60568), the Kd was 1 nM.
